Assay results from patent US20110014125.

What was measured:
[1] = tested on: T1, oligopeptide CGGGSGRSAGGGC (SEQ ID NO: 35) tethering Zn-TCPP and TCPP porphyrins to a stealth-protected Fe/Fe3O4 nanoparticle
T1 sequence: CGGGSGRSAGGGC

[2] = tested on: Fe/Fe3O4 nanoparticle-TCPP assemblies featuring the urokinase cleavage sequence
[3] = tested on: T2, oligopeptide CGGGSGRSAGGGC (SEQ ID NO: 35) linking two gold nanoparticles (Au-Au nanoparticle assembly)
T2 sequence: CGGGSGRSAGGGC

[4] = tested on: T3, oligopeptide SRSRSRSRSRSGRSAGGGC (SEQ ID NO: 18) as spacer between a pyrene fluorophore and a coumarin acceptor
T3 sequence: SRSRSRSRSRSGRSAGGGC

For urokinase, the “fluorescence band at 607 nm over 0-6 minutes” value [1] was “distinct decrease of the fluorescence band at λ1=607 nm”, the “cleavage rate (rate constant k from TCPP luminescence at 656 nm vs. time)” value [2] was “the cleavage rate increases by 3-5 times per order of magnitude of increase in urokinase concentration” and the “maximum of the gold plasmon absorption (UV/Vis absorption, after 180 seconds with urokinase)” value [3] was “shift from 523 nm to 517 nm within 180 seconds”. For the same substance, the “maximum of the gold plasmon absorption (UV/Vis absorption, before cleavage)” value [3] was “shift from 523 nm to 517 nm within 180 seconds” and the “coumarin emission (FRET from pyrene, excitation 280 nm) over 0-15 minutes” value [4] was “The coumarin emission decreases with time”.
